Target: His6-NbSWP12 recombinant protein (spore wall protein NbSWP12 of Nosema bombycis) (Nosema bombycis)
Experiment: non-reducing SDS-PAGE with Western blot; purified His6-NbSWP12 in non-reducing loading buffer (no SDS, no β-mercaptoethanol, not heated), 12% gel, blot with NbSWP12 antiserum

His6-NbSWP12 recombinant protein (spore wall protein NbSWP12 of Nosema bombycis) (natural protein)
stoichiometry N: 2

Source: article PMC9332396
